The data set in a line: protease stability score; higher = more stable; yeast display proteolysis, trypsin and chymotrypsin.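 Further: relative to predicted unfolded state with 0 unfolded-like and 1 meaning tenfold more protease.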
“DEDHRHARNIFQKWTHDLATGNFHSLNTLFDPHARFEVGDKDIIGRHEWQEHLRHLRLHEVKFTWRRFRIFDGRVEMRGDLRVDGTIDGQHDDETIHTHMIILKVNGRWHIDSMHVH” had a protease stability score of 1.08. The result for “DEIKTELEKWLREFIRDMRTGDEDTLRQQADPNMRLDVNGQEIIGWDRILREEIRLRHDLGLTQIHVTVKDHRIQGEKIHNRGEIIYGEFRLDTILIVKKVDGRWRATDMVVV” reads 1.17; that for “SEDEEDLKRIVELLVRALKTGDEDLIRHLADPHVRLEVGDKEHHGREEYTRWAENFVERIDHVNIHIKRMTTIGNYLQMDVRLEERFDGRRVELRHYLIILKVDGRWVIKEVQIE”, 1.25. The result for “SEEEEEARDILKMLFTALDTGNEEYFLNLIDPNVRISVGNYTIVGREQWTEHMRRVKNMQIDDISIKDIKFQGELLRIHGHLVGRFDGQHSHFHVDIIFRKVNGQWHQKEIIIK” reads 1.99. Under “DHLEDTFRELTRILWEALHTGDWEIRRHYADPNARFQMHINGVELRDHGMDQLSRKYEEWYRRVDHYEVRIKDRRYQGDKMIIHVHIRVKINGKEIHYDVILYIIVVNGRIEEESEEVR” stands 1.34.

With “SEDDNMAEHVLRYFIEHHLTGDFDSILKLMDPNMRLEVNGREHWGRKRWSEHLLRMGFDHVDIEEHRINSYGNFAYEIIHGRYHINGQEINITLIINVEKVNGKWIIREVTIVKR”, the protease stability score came to 1.74. Under “SEDERDSEEWAKILIKLLETGDEDELRRLMDPHVRTEVIVNGRTITHHGREDLTEFLRKLGADVIDIERVRVIDGVVHLDSRSKQGEKHVTLHFEALKINGRWITERFHVKFH” stands 1.3; under “DEEEELTKRWIDHLLRLWNTGDEHHFLKMADPHVRIEQGDKEHIGREEMYRWLQQFKNIRLHIDDIDIQGDFLNIDGYINFNGVHREAKVHIRVINGKLHSIIIRIK”, 1.3; under “SEEEELQRQLIEEFIRNRLTGDEDRLLELMDPNVRVRVGEKHAHGREEAIKLWHDHLHHWRIRHLTLRDYRVIDGKIHLHGEIHGEYNGKEHHTRTTIIIVHIDGRLRSIRIEID”, 2.12. Under “DEENEHAKHLMRELIKSIITGDEEMIDHLADPNMRLRVGDKEWHGREEIQHWLRRLVEEARIHDVELTSVRTIGDKVILDTRVDIKQGDKRKIITLIIIVQKFDGRWIIEEIRIH” stands 2.57. “DEQERIIRRLTELFTRAEKTGDWKNFLELADPHVRLKYGEFDHIGREEFYTLKEHVDKKLGIEFRDTDIKDLVVVGDKAVSHLTNDGEVNGVRHELSLNVVISKFNGRWELEQVEIK” came in with a protease stability score of 0.897. The result for “DEEEKESEEAFRIHKEVLETGDEHLIERMLDPNTRIIIGDKNIHGRESALETMIKLGVKHVHIRRWNDFNGRAENDVQMRFNGRTHEVHLFALKFNGRWLMHEIEFR” reads 1.25. The result for “EEEDREFEERWKEFEHAMRTGDEDSLEENLDPNVRFLFDGQEIVGRELTSKFIAEWLRSLGVEKVTIFMRRFHVIGDKVTVDGAFEVNGVHIRTIVYSKKVNGRWFNKSEEFR” reads 0.733; that for “SEEEEENRKRVEFFKKVWETGDEHSMEELMDPNVRLRIVVNGRHEHYHGREEVVHILQDELRKIKNVKVNLKRIDVVDGRAHSDIHVDQGDWRMKMEVILIKVNGRWRMKELELHVI”, 1.78; that for “TEDEEDSLFAFDEWVKSVETGDEHTLSKLADPHTRLNVNGVDQHGRENMSHMMLRLANRYDHIEIRLHSWRLINGRIEVDSRVINVVGDKRIESNFHMFILKVNGRWLMHSVHFE”, 0.847.

With “DEIEKEMLKRARDILENWVTGDEDEFNRLADPNVRFELVYGDKSHSHHGMENLKKWLEEWTKRVDHFDLKIKSQRVVGDKAETETKLILNYDGRRFEHDTRIDVVVVNGRIKQIRVEIR”, the protease stability score was determined as 1.59. In turn, “DEVDHMIELVTRLFIHAVLTGDEKILRDLMDPHVRVHVDGKKLHGWKEFIDWLREELERYDHFHFRVHHYNVVNGRVHADGNLDVHFNGRKHHITTDLRLIIWDGRIKTVDIRHH” gave a protease stability score of 1.75. The result for “SEDEQDAHKWLQLFIDFLKTGDEELMEKFLDPTVRSRVGDKETHGREMLVLHLLFLGVDHIHFRHVEERVYNGRVLLIITILIRVGDKHVETEIRVEIDKINGRWLAETIHIRIR” reads 0.778.

Source of the values: the NTF2 design screens of Basanta et al. (2020).
